Source: patent publication EP4772193A1
Residue numbers refer to the chain shown, from its start. Numbers in names are those of the source. One block for each binder: values may come before it.

Assays:
[1] = biological target: recombinant human soluble gpNMB (recombinant human gpNMB-FLAG-His) (human) (UniProt Q14956); experiment: antigen ELISA, vs hGPN06-1_H1L1
[2] = biological target: recombinant human soluble gpNMB (recombinant human gpNMB-FLAG-His) (human) (UniProt Q14956); experiment: antigen ELISA

Relative binding activity [1]: 0 | EC50 [2]: 25.3 nM
B1: hGPN06-1_H1L1 VL Y93A (antibody, V domains shown)
VH: QVQLVQSGAEVKKPGASVKVSCKASGYTFTDNWMGWVKQRPGQGLEWIGAIDPSDSFTNYNQNFKGRVTMTVDTSISTAYMELSRLRSDDSAVYFCTRSGYYGSPKLGGDYWGQGTLVTVSS
VL: EIVLTQSPSSLSASVGDRVTITCSASSSISYMHWYQQKSGTAPKLLIYSTSNLASGVPSRFSGSGSGTDFTFTISSLQPEDAATYYCHQWNSAPCTFGGGTKLEIK

Relative binding activity [1]: 0 | EC50 [2]: 31.5 nM
B2: hGPN06-1_H1L1 VH D55A (antibody, V domains shown)
VH: B1 VH with D55A
VL: B1 VL with A93Y
